Laboratory results taken from publication PMC6333409, “Crystal structure of chloramphenicol-metabolizing enzyme EstDL136 from a metagenome” (PLoS ONE, 2019).

System: CC(=O)Oc1ccc([N+](=O)[O-])cc1
Assay: purified protein
Format: biochemical, uncultured bacterium pDL136
Details: 50 mM Tris pH 8.0, 30°C, ~2 nM enzyme, value in parentheses is standard error

Substance	Km	kcat [s⁻¹]	kcat/Km [M⁻¹ s⁻¹]
EstDL136 (wild-type full-length) (uncultured bacterium pDL136)	0.14 (0.016) mM	622	4.4e+06
EstDL136 (wild-type full-length) (uncultured bacterium pDL136; F214A)	0.55 (0.051) mM	641	1.2e+06
EstDL136 (wild-type full-length) (uncultured bacterium pDL136; L206A)	0.40 (0.030) mM	547	1.4e+06
